The text below walks through data of article PMC11213015.

In this test the target is biotinylated-YE (UpxY of the PSE operon, Bacteroides fragilis) (Bacteroides fragilis NCTC 9343). Nature of the test: BLI.

B1: ZA (UpxZ of the PSA operon, Bacteroides fragilis) (natural protein)
chain: MNQVQNLQHIARELLYLGMDGSPIYTDHFRQLNTEVFRLSEALFSMKGATSEEEAAICLSLLMGYNATIYNDGDKESKIQSILDRSFAVLDHLPASLLKCQLLTYCYGEVFEEDLAQEAHQIMDSWKNRALSEEELEVMETLQTMEDNRYPCSEVED
As for B1, the Kd amounted to 0.9 nM and the kon came out at 1.1e+06 M⁻¹ s⁻¹.

B2: ZE (UpxZ of the PSE operon, Bacteroides fragilis) (natural protein)
chain: MNTLMTQIHELQHVAHELLYLGADGSPIYTDSFRQLNTEVLQKSDALFALKGENPEEEARLCLALLMGYNATIYDYGDKESKKQVILDRSLLVLESLPSSLLKCQLLTYCYGEVFEEELAKEAHAIIDYWDNKTLSIDEQETVDMLKMIEENQYPNNYID
Consider B2, for which the equilibrium dissociation constant (Kd) was found to be 88 nM, the koff worked out at 0.0096 s⁻¹ and the kon worked out at 110000 M⁻¹ s⁻¹.
